Measured values as given in patent US20140072613A1, “Compositions and Methods for Treating Cutaneous Scarring” (priority 2012, published 2014).

Key:
Assay in all cases: biochemical
Assay type in all cases: biochemical
266 human kinases [1] = molecular target: 266 human kinases (Homo sapiens, UniProt P06213); settings: IR(h), 100 μM
Procedure, shortened: (§1)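 Radiometric filter-binding format: a positively charged substrate takes up radiolabelled phosphate from ATP unless the kinase is inhibited, then is captured on a negatively charged filter membrane. Counts from scintillation are expressed relative to a 100% activity control.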

266 human kinases [2] = molecular target: 266 human kinases (Homo sapiens, UniProt P07949, V804L); settings: Ret(V804L)(h); 100 μM
Procedure, shortened: as §1

266 human kinases [3] = molecular target: T1, 266 human kinases (Homo sapiens, UniProt P29322); settings: EphA8(h); 100 μM
T1 sequence (P29322 28-1005): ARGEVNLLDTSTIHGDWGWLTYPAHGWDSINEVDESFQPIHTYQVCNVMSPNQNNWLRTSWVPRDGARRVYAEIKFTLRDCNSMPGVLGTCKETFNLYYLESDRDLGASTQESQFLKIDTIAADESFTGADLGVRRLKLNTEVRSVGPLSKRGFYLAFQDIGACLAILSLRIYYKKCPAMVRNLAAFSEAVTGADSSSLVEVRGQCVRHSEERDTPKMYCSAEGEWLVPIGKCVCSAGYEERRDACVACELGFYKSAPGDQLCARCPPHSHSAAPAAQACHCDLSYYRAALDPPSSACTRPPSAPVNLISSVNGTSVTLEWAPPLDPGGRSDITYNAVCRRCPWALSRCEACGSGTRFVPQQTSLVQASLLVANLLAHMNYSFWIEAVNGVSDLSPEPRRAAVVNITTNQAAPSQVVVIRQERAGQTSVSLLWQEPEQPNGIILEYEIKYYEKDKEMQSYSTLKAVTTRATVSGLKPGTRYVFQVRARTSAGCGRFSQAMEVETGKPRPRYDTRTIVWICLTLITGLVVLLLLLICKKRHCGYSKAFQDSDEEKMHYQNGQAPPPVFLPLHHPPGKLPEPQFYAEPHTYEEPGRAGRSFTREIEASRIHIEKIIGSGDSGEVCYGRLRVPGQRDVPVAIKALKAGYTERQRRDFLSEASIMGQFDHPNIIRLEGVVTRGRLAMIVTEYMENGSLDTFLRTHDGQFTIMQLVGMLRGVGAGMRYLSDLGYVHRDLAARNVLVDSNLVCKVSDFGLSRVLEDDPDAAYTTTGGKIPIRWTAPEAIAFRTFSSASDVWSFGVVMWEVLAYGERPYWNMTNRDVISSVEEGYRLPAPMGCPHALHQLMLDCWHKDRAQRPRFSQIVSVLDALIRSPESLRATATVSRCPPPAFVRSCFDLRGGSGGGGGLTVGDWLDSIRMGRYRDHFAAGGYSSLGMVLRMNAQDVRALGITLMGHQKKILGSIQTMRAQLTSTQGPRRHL
Procedure, shortened: as §1

266 human kinases [4] = molecular target: 266 human kinases (Homo sapiens, UniProt P35968); settings: KDR(h); 100 μM
Chain of 266 human kinases (Homo sapiens, UniProt P35968) (P35968 20-1356): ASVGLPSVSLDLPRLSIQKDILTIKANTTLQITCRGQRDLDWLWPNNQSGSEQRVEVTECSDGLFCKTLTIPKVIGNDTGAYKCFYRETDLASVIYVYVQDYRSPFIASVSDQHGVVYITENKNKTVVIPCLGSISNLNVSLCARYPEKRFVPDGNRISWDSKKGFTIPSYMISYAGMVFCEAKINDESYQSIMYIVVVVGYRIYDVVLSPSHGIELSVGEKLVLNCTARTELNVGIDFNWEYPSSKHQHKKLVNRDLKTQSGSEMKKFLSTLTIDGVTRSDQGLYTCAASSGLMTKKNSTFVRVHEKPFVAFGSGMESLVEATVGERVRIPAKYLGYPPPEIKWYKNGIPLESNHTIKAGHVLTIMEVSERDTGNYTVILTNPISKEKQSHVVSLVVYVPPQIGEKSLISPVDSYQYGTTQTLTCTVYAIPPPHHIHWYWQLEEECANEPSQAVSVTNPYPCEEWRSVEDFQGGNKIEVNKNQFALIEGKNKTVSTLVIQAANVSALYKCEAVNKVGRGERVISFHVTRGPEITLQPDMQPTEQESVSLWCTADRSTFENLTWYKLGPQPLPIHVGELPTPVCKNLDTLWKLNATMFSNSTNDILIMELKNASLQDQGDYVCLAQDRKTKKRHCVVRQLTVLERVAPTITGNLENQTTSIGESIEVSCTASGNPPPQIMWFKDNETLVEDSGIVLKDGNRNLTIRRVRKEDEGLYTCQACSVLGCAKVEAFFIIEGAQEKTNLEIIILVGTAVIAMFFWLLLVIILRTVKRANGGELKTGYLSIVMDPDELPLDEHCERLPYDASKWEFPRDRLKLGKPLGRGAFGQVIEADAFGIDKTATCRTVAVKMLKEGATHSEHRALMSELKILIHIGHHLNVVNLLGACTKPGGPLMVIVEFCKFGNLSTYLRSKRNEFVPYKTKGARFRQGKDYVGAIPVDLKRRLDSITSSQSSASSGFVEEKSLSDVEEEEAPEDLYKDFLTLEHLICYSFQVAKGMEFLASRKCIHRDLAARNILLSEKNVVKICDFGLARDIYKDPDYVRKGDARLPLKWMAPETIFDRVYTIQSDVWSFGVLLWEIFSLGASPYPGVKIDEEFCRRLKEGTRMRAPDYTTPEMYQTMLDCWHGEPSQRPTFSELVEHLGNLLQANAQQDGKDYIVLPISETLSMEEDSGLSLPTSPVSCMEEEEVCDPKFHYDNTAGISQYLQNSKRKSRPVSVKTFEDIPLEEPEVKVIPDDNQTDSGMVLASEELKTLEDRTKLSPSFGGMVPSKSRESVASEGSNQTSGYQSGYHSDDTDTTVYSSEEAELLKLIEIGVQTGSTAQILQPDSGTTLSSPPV
Procedure, shortened: as §1

266 human kinases [5] = molecular target: 266 human kinases (Homo sapiens, UniProt P51812); settings: Rsk2(h); 100 μM
Chain of 266 human kinases (Homo sapiens, UniProt P51812) (P51812 whole entry): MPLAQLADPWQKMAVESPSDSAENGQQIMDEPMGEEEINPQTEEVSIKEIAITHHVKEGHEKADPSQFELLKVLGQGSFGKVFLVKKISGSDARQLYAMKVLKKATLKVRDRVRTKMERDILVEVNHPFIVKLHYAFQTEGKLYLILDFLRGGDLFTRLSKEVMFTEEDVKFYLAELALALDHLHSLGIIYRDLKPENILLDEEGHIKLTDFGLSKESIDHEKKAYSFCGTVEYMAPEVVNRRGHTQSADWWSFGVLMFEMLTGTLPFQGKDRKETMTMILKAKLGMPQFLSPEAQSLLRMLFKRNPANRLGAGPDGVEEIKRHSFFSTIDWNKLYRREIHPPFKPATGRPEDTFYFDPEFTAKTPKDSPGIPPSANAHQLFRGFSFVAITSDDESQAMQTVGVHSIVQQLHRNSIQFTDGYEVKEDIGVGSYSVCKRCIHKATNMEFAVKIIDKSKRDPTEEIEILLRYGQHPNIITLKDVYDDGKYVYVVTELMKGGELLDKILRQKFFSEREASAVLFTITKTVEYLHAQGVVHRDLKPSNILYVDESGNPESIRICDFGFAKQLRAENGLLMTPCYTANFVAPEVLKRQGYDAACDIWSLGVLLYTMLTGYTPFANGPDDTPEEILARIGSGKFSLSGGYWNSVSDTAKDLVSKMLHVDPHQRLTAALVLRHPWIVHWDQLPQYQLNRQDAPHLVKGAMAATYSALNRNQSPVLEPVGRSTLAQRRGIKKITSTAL
Procedure, shortened: as §1

266 human kinases [6] = molecular target: 266 human kinases (Homo sapiens, UniProt Q05655); settings: PKGδ(h); 100 μM
Chain of 266 human kinases (Homo sapiens, UniProt Q05655) (Q05655 whole entry): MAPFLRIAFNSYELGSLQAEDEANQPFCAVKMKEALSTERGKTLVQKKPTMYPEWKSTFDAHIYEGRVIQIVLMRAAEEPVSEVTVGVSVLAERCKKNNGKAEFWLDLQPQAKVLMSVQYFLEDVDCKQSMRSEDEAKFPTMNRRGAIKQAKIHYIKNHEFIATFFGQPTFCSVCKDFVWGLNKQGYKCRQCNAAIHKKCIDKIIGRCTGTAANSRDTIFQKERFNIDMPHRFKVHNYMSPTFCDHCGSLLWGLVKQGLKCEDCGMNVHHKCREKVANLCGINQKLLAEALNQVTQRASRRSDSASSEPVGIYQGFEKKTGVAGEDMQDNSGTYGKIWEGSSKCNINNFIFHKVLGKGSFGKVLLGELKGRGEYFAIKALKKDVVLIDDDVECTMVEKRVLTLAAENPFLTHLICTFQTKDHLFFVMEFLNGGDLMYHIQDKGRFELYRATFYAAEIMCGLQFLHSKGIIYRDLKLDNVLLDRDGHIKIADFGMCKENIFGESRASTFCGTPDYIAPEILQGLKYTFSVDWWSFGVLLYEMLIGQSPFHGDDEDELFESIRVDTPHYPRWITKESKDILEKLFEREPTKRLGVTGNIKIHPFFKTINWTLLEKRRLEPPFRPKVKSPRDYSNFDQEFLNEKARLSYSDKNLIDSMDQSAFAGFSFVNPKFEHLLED
Procedure, shortened: as §1

266 human kinases [7] = molecular target: T2, 266 human kinases (Homo sapiens, UniProt Q12851); settings: GCK(h); 100 μM
T2 sequence (Q12851 1-820): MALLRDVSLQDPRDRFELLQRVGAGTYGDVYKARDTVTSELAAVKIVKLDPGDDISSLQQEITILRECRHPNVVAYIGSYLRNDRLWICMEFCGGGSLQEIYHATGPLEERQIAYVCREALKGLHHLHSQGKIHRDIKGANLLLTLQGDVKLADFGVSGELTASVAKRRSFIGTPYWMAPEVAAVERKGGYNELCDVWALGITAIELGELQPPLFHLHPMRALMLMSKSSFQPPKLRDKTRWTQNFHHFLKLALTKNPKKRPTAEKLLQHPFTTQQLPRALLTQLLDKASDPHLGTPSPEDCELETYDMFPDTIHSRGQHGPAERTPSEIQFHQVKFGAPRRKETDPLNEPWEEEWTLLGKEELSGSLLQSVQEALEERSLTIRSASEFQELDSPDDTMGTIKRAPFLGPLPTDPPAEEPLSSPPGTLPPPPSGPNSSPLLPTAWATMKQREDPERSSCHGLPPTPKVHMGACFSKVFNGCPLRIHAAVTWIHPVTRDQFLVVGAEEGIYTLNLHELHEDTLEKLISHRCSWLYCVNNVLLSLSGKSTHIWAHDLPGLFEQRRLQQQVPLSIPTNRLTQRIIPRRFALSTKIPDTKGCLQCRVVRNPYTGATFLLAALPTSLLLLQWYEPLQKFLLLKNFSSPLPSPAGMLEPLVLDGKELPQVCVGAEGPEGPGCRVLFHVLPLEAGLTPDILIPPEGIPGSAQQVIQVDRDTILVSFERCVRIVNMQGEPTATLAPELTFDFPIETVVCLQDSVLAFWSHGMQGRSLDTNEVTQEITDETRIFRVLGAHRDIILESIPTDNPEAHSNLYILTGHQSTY
Procedure, shortened: as §1

266 human kinases [8] = molecular target: 266 human kinases (Homo sapiens, UniProt Q9P286); settings: PAK5(h); 100 μM
Chain of 266 human kinases (Homo sapiens, UniProt Q9P286) (Q9P286 whole entry): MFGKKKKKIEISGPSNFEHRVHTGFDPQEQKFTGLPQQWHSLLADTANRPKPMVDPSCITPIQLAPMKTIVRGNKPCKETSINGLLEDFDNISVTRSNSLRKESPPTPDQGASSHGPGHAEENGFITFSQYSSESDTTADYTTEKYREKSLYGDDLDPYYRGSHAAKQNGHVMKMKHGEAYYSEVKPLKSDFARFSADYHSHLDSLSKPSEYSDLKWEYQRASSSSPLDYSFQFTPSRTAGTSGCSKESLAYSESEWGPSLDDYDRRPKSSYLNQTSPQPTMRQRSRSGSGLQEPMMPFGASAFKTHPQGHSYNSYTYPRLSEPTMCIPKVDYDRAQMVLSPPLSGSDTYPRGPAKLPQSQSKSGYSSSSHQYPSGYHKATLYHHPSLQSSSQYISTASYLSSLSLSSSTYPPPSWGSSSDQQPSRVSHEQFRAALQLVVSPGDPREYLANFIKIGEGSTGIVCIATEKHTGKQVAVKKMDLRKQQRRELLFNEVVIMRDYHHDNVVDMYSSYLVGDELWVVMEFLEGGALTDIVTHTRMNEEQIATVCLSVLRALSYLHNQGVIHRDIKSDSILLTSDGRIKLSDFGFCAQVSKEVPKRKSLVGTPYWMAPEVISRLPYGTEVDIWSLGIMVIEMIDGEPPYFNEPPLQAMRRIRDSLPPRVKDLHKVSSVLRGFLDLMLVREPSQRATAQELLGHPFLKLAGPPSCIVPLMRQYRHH
Procedure, shortened: as §1

266 human kinases [9] = molecular target: 266 human kinases (Homo sapiens, UniProt Q9UK32); settings: Rsk4(h); 100 μM
Chain of 266 human kinases (Homo sapiens, UniProt Q9UK32) (Q9UK32 whole entry): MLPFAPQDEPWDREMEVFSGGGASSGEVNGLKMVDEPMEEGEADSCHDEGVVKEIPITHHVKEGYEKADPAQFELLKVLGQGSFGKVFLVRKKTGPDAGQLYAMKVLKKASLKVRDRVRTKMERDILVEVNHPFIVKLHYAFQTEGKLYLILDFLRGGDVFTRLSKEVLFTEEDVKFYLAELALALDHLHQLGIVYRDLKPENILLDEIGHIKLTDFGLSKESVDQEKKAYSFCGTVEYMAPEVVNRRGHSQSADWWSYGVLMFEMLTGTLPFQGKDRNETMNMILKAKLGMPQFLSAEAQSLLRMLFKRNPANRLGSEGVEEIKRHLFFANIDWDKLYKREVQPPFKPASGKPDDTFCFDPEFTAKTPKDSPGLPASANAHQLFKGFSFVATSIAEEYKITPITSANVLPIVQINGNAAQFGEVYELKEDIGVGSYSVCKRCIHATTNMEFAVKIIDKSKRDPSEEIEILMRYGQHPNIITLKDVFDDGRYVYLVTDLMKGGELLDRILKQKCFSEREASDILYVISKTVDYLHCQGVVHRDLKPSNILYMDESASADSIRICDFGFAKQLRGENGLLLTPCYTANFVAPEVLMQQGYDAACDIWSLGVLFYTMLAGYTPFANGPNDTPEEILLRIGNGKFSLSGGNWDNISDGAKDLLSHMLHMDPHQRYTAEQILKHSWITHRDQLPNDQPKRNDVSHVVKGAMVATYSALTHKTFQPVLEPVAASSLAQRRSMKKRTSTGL
Procedure, shortened: as §1

| Sequence | % activity (266 human kinases [1]; activated) [%] | % activity (266 human kinases [1]) [%] | % activity (266 human kinases [2]) [%] | % activity (266 human kinases [3]) [%] | % activity (266 human kinases [4]) [%] | % activity (266 human kinases [5]) [%] | % activity (266 human kinases [6]) [%] | % activity (266 human kinases [7]) [%] | % activity (266 human kinases [8]) [%] | % activity (266 human kinases [9]) [%] |
| --- | --- | --- | --- | --- | --- | --- | --- | --- | --- | --- |
| HRRIKAWLKKIKALARQLGVAA (mammal) [MMI-0500] | 90 | 95 | 20 | 337 | 15 | 14 | 61 | 30 | 125 | 29 |
| YARAAARQARAKALNRQLGVA (mammal) [MMI-0200] |  | 90 | 100 | 133 | 110 | 101 | 101 | 99 | 100 | 125 |
